Experimental data: patent publication US20250145711A1 (Janssen / Centocor, published 2025)
One block for each binder: values may come before it.

Assays:
[1] = molecular target: T1, TRCW5 antigen (CD3δε-Fc-Avi) (biotinylated (site not stated)); test: ELISA after heat
T1 construct: also called recombinant CD3

[2] = molecular target: T1, TRCW5 antigen (CD3δε-Fc-Avi); test: ELISA, E. coli scFv on biotinylated TRCW5
Experimental: Briefly, DNA was transformed into an E. coli expression vector to generate scFv molecules having a C-terminal HA-tag, and cells were plated on 2×YT/Carb/2% Glucose grown overnight at 37 C. Colonies were picked and transferred 50 ul of overnight growth cultures to new plates containing 500 ul of 2×YT/Carb/0.1% Glucose, grown for 6-7 hr, and combined with 50 ul 2×YT medium containing 1×carbenicillin & 12×IPTG. Cultures were incubated with shaking ˜600 RPM 30° C. overnight. Streptavidin coated plates were bound with 50 μL of biotinylated TRCW5 antigen (CD3δε-Fc-Avi, SEQ ID NO: 39) at the concentrations indicated in the ELISA graph for 45 min at room temperature with shaking (FIG. 1, FIG. 3, FIG. 4) followed by washing 3× with 1×TBST. Plates were blocked with 200 ul 3% Milk in 1×TBST for ˜45 mins at room temperature followed by washing 3× with 1×TBST. E. coli cultures were harvested by centrifugation at […] for 10 mins 4° C. and 50 μL of supernatant was transferred into CD3-coated plates followed by incubation at 4 C for 45 min. Plates were washed 3× with 1×TBST. Bound scFv was detected with Chicken Polyclonal Anti-HA-HRP (ab1190) [1:1000] for ˜45 mins RT and luminescence detected with chemi-luminescent substrate.

[3] = molecular target: T2, human PSMA on prostate cancer cell lines (22RV1, C4-2B) (human, UniProt Q04609 1-750); test: flow cytometry on 22RV1 cells
T2 construct: also called PSMA-expressing cell lines
Method in brief: (§1)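 22RV1 and C4-2B prostate cancer cells (50,000/well, RPMI/10% HI FBS) incubated 60 min at 37 °C with serially diluted antibodies. After washes, bound antibody detected with 2 μg/ml AlexaFluor647 goat anti-human Fc, 30 min at 4 °C, by flow cytometry.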

[4] = molecular target: T2, human PSMA on prostate cancer cell …; test: flow cytometry on C4-2B cells
Method in brief: as §1

recombinant human PSMA = molecular target: T3, recombinant human PSMA (human, UniProt Q04609 44-750); test: SPR (Biacore 8K), antibody captured on anti-Fc, PSMA in solution
T3 construct: also called hu PSMA; prostate-specific membrane antigen
Method in brief: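 Antibodies were captured via anti-human Fc and PSMA was injected in solution at 50 μL/min, with 3 min association and 15 min dissociation. Blank-subtracted sensorgrams were fitted to a 1:1 Langmuir model, and affinity was calculated from the kinetic constants.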

T1 sequence (chain, as listed by the source mutant limits assumed): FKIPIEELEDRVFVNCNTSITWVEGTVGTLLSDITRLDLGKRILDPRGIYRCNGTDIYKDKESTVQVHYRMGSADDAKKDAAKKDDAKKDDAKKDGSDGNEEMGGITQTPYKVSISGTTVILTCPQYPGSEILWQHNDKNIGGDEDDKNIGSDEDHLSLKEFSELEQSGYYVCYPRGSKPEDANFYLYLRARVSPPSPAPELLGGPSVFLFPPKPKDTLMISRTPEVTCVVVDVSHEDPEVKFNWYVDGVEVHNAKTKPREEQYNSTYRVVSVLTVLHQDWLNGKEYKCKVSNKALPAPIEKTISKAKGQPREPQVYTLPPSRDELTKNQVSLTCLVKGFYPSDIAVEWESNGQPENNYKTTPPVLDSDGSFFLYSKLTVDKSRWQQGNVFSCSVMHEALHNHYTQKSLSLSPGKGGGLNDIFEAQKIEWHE
T2 sequence (Q04609 whole entry): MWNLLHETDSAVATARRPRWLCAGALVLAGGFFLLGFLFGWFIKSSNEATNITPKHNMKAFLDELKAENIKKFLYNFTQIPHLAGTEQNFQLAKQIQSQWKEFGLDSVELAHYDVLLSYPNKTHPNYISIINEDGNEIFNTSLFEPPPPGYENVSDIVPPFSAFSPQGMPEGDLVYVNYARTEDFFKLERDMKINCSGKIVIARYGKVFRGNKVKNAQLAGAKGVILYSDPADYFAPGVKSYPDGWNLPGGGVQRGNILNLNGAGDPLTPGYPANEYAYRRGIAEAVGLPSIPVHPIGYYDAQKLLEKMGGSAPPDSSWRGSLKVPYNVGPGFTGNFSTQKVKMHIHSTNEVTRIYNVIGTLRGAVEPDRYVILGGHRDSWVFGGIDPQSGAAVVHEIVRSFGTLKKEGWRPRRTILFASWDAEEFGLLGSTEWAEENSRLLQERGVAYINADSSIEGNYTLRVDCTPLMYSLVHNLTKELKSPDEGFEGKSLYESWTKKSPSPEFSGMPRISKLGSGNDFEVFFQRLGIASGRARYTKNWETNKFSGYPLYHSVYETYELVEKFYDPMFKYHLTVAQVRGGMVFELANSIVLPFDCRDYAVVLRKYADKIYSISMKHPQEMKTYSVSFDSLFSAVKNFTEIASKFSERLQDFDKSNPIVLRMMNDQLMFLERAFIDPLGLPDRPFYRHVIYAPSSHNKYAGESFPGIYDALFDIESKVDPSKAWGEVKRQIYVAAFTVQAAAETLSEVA
T3 sequence (Q04609 44-750 limits assumed): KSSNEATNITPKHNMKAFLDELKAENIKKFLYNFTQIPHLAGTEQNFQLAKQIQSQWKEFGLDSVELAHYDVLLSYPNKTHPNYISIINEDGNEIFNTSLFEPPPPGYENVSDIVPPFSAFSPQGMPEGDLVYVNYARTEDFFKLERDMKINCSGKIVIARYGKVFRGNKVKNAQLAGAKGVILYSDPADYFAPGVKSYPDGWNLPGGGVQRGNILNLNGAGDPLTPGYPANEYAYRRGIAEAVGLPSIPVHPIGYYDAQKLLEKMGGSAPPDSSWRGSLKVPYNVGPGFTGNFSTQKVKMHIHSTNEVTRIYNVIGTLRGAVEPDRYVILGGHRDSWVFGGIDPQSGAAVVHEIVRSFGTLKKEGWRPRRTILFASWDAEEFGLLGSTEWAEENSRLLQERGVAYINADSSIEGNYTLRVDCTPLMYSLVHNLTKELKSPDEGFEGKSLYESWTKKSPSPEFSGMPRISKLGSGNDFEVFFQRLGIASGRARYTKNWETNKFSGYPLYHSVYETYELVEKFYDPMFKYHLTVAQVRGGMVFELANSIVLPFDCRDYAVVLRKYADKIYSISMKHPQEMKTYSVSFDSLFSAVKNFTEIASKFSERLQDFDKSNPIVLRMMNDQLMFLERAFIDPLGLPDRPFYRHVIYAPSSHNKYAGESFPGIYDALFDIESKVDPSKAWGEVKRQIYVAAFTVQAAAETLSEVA

- % Retained 55° C. [1]: 10%
- % Retained 60° C. [1]: 2%
- % Retained 65° C. [1]: 3%
- EC50 [2]: ~0.437 nM
B2: CD3B1128 (scFv)
scFv: QVVLTQSPAIMSAFPGEKVTMTCSASSSVSYMNWYQQKSGTSPKRWIYDSSKLASGVPARFSGSGSGTSYSLTISSMETEDAATYYCQQWSRNPPTFGGGTKLQITGGSEGKSSGSGSESKSTGGSQVQLQQSGAELARPGASVKMSCKASGYTFTRSTMHWVKQRPGQGLEWIGYINPSSAYTNYNQKFKDKATLTADKSSSTAYMQLSSLTSEDSAVYYCASPQVHYDYNGFPYWGQGTLVTVSA
notes: also called Murine LH; murine Cris-7 scFv (LH)

- EC50 [2]: 0.712 nM
B4: CD3B1129 (scFv)
scFv: QVQLVQSGAEVKKPGSSVKVSCKASGYTFTRSTMHWVRQAPGQGLEWMGYINPSSAYTNYNQKFQGRVTLTADKSTSTAYMELSSLRSEDTAVYYCARPQVHYDYNGFPYWGQGTLVTVSSGGSEGKSSGSGSESKSTGGSDIQLTQSPSSLSASVGDRVTITCSASSSVSYMNWYQQKPGTSPKRLIYDSSKLASGVPSRFSGSGSGTDYTLTISSLQPEDFATYYCQQWSRNPPTFGGGTKVEIK

- EC50 [3]: 39.5 nM
- EC50 [4]: 8.22 nM
- Kd (recombinant human PSMA): 0.454 nM
B5: PS3B935 (bispecific antibody, human IgG1, kappa, lambda, L234A L235A)
heavy 1: EVQLVESGGGLVKPGGSLRLSCAASGFTFSRYNMNWVRQAPGKGLEWVSSISTSSNYIYYADSVKGRFTFSRDNAKNSLDLQMSGLRAEDTAIYYCTRGWGPFDYWGQGTLVTVSSASTKGPSVFPLAPSSKSTSGGTAALGCLVKDYFPEPVTVSWNSGALTSGVHTFPAVLQSSGLYSLSSVVTVPSSSLGTQTYICNVNHKPSNTKVDKKVEPKSCDKTHTCPPCPAPEAAGGPSVFLFPPKPKDTLMISRTPEVTCVVVSVSHEDPEVKFNWYVDGVEVHNAKTKPREEQYNSTYRVVSVLTVLHQDWLNGKEYKCKVSNKALPAPIEKTISKAKGQPREPQVYTLPPSREEMTKNQVSLTCLVKGFYPSDIAVEWESNGQPENNYKTTPPVLDSDGSFLLYSKLTVDKSRWQQGNVFSCSVMHEALHNHYTQKSLSLSP
light 1: DIQMTQSPSSLSASVGDRVTITCRARQSIGTAIHWYQQKPGKAPKLLIKYASESISGVPSRFSGSGSGTDFTLTISSLQPEDFATYYCQQSGSWPYTFGQGTKLEIKRTVAAPSVFIFPPSDEQLKSGTASVVCLLNNFYPREAKVQWKVDNALQSGNSQESVTEQDSKDSTYSLSSTLTLSKADYEKHKVYACEVTHQGLSSPVTKSFNRGEC
heavy 2: EVQLVESGGGLVQPGGSLRLSCAASGFTFSSYAMSWVRQAPGKGLEWVSAISGGSGSTYYADSVKGRFTISRDNSKNTLYLQMNSLRAEDSAVYYCAKDGVGATPYYFDYWGQGTLVTVSSASTKGPSVFPLAPSSKSTSGGTAALGCLVKDYFPEPVTVSWNSGALTSGVHTFPAVLQSSGLYSLSSVVTVPSSSLGTQTYICNVNHKPSNTKVDKKVEPKSCDKTHTCPPCPAPEAAGGPSVFLFPPKPKDTLMISRTPEVTCVVVSVSHEDPEVKFNWYVDGVEVHNAKTKPREEQYNSTYRVVSVLTVLHQDWLNGKEYKCKVSNKALPAPIEKTISKAKGQPREPQVYTLPPSREEMTKNQVSLTCLVKGFYPSDIAVEWESNGQPENNYKTTPPVLDSDGSFFLYSRLTVDKSRWQQGNVFSCSVMHEALHNHYTQKSLSLSPG
light 2: QSVLTQPPSVSAAPGQKVTISCSGSSSNIGINYVSWYQQLPGTAPKLLIYDNNKRPSGIPDRFSGSKSGTSATLGITGLQTGDEADYYCGTWDSSLSAVVFGGGTKLTVLGQPKAAPSVTLFPPSSEELQANKATLVCLISDFYPGAVTVAWKADSSPVKAGVETTTPSKQSNNKYAASSYLSLTPEQWKSHRSYSCQVTHEGSTVEKTVAPTECS
notes: FAB-A: CD3B2183 (CD3W245); FAB-B: PSMB898

- EC50 [2]: 0.958 nM
B7: CD3B1133 (scFv)
scFv: DIQLTQSPSSLSASVGDRVTITCSASSSVSYMNWYQQKPGTSPKRLIYDSSKLASGVPSRFSGSGSGTDYTLTISSLQPEDFATYYCQQWSRNPPTFGGGTKVEIKGGSEGKSSGSGSESKSTGGSQVQLVQSGAEVKKPGSSVKVSCKASGYTFTRSTMHWVRQAPGQGLEWMGYINPSSAYTNYNQKFQGRVTLTADKSTSTAYMELSSLRSEDTAVYYCARPQVHYDYNGFPYWGQGTLVTVSS

- EC50 [2]: ~0.0063 nM
B8: CD3B1134 (scFv)
scFv: DIQLTQSPSSLSASVGDRVTITCSASSSVSYMNWYQQKPGTSPKRLIYDSSKLASGVPSRFSGSGSGTDYTLTISSLQPEDFATYYCQQWSRNPPTFGGGTKVEIKGGSEGKSSGSGSESKSTGGSEVQLVQSGAEVKKPGESLRISCKASGYTFTRSTMHWVRQMPGKGLEWMGYINPSSAYTNYNPSFQGHVTLSADKSISTAYLQWSSLKASDTAMYYCARPQVHYDYNGFPYWGQGTLVTVSS

The remaining lines, values behind:

B1: CD3B1130 (scFv)
scFv: QVQLVQSGAEVKKPGSSVKVSCKASGYTFTRSTMHWVRQAPGQGLEWMGYINPSSAYTNYNQKFQGRVTLTADKSTSTAYMELSSLRSEDTAVYYCARPQVHYDYNGFPYWGQGTLVTVSSGGSEGKSSGSGSESKSTGGSEIVLTQSPATLSLSPGERATLSCSASSSVSYMNWYQQKPGTSPRRLIYDSSKLASGIPARFSGSGSGRDYTLTISSLEPEDFAVYYCQQWSRNPPTFGGGTKVEIK
notes: also called IGHV1-69*02-IGHJ1-01 / IGKV3-11*02-IGKJ4-01 grafted construct, HL
- % Retained 55° C. [1]: 90%
- % Retained 60° C. [1]: 11%
- % Retained 65° C. [1]: 1%
- EC50 [2]: 0.747 nM

B3: CD3B1132 (scFv)
scFv: EVQLVQSGAEVKKPGESLRISCKASGYTFTRSTMHWVRQMPGKGLEWMGYINPSSAYTNYNPSFQGHVTLSADKSISTAYLQWSSLKASDTAMYYCARPQVHYDYNGFPYWGQGTLVTVSSGGSEGKSSGSGSESKSTGGSEIVLTQSPATLSLSPGERATLSCSASSSVSYMNWYQQKPGTSPRRLIYDSSKLASGIPARFSGSGSGRDYTLTISSLEPEDFAVYYCQQWSRNPPTFGGGTKVEIK
- EC50 [2]: ~1.1 nM

B6: CD3B1131 (scFv)
scFv: EVQLVQSGAEVKKPGESLRISCKASGYTFTRSTMHWVRQMPGKGLEWMGYINPSSAYTNYNPSFQGHVTLSADKSISTAYLQWSSLKASDTAMYYCARPQVHYDYNGFPYWGQGTLVTVSSGGSEGKSSGSGSESKSTGGSDIQLTQSPSSLSASVGDRVTITCSASSSVSYMNWYQQKPGTSPKRLIYDSSKLASGVPSRFSGSGSGTDYTLTISSLQPEDFATYYCQQWSRNPPTFGGGTKVEIK
notes: also called CD381131
- EC50 [2]: 1.14 nM

B9: CD3B1135 (scFv)
scFv: EIVLTQSPATLSLSPGERATLSCSASSSVSYMNWYQQKPGTSPRRLIYDSSKLASGIPARFSGSGSGRDYTLTISSLEPEDFAVYYCQQWSRNPPTFGGGTKVEIKGGSEGKSSGSGSESKSTGGSQVQLVQSGAEVKKPGSSVKVSCKASGYTFTRSTMHWVRQAPGQGLEWMGYINPSSAYTNYNQKFQGRVTLTADKSTSTAYMELSSLRSEDTAVYYCARPQVHYDYNGFPYWGQGTLVTVSS
- EC50 [2]: 1.04 nM
